Source: patent US20240269235A1 (Gilead, published 2024)
Numbering of substitutions follows the chain as printed.

T1: IL-2Rβ (recombinant IL-2 receptor β, R&D Systems Cat #:224-2B-025/CF), biotinylated (UniProt P14784 27-239, limits assumed, biotinylated using sulfo-NHS-LC-LC-Biotin)
T1 construct: Bought reagent; also called IL-2RB; CD122
T1 sequence (looked up): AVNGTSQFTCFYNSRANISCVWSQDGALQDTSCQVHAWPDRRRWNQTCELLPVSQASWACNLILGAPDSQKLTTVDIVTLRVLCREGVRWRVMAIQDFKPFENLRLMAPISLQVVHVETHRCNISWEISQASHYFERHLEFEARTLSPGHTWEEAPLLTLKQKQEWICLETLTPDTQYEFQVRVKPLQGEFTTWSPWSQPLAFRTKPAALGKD

T2: IL-2Rα (recombinant IL-2 receptor α, R&D Systems Cat #: 223-2A/CF), biotinylated (human, UniProt P01589 22-213, limits assumed, biotinylated using sulfo-NHS-LC-LC-Biotin)
T2 construct: Bought reagent; also used here as the IL-2Rα partner of the in-silico analysis of PDB 2B5I (another construct); also called IL-2RA; CD25
T2 sequence (looked up): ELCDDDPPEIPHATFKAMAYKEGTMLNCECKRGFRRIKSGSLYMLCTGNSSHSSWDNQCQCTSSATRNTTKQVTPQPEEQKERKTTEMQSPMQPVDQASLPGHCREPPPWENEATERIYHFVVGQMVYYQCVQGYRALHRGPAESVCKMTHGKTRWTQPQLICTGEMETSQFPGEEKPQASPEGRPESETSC

T3: trimeric murine IL-2 receptor (IL-2Rα, IL-2Rβ, and IL-2Rγ) on CTLL-2 cells (murine, UniProt P01590 22-268; P16297 27-539; P34902 23-369)
T3 sequence (looked up) 1: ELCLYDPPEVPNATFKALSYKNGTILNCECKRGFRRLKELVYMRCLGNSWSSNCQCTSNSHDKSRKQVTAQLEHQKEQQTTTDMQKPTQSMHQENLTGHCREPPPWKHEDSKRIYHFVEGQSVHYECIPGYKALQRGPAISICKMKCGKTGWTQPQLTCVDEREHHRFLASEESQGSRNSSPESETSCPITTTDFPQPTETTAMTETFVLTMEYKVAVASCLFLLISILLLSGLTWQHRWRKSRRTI
T3 sequence (looked up) 2: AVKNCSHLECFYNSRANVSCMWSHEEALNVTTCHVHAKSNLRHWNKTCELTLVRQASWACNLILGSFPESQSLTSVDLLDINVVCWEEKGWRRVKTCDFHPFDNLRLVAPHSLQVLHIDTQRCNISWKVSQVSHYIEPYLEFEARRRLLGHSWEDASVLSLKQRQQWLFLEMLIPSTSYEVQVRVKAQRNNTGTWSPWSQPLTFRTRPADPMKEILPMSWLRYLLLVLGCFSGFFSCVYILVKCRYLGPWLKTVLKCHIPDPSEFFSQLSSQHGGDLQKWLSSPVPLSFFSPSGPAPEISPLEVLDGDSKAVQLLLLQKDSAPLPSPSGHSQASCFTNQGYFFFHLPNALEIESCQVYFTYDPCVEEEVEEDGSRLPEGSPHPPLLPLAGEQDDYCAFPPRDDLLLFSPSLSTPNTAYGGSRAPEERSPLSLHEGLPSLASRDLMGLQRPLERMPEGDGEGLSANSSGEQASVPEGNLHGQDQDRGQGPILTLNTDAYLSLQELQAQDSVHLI
T3 sequence (looked up) 3: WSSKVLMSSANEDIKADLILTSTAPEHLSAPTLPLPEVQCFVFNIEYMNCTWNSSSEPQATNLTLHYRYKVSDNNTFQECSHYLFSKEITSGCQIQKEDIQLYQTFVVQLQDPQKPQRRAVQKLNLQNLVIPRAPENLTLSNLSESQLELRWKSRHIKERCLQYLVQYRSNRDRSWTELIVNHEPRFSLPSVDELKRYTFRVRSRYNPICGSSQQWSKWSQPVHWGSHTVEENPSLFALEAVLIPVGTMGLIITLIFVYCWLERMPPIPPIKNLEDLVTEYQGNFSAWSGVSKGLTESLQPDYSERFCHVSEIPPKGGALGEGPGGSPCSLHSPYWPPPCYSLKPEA

T4: human IL-2Rα on Treg cells (CD3+, CD4+, CD25hi, FoxP3+) of human PBMC (human, UniProt P01589 22-272)
T4 sequence (looked up): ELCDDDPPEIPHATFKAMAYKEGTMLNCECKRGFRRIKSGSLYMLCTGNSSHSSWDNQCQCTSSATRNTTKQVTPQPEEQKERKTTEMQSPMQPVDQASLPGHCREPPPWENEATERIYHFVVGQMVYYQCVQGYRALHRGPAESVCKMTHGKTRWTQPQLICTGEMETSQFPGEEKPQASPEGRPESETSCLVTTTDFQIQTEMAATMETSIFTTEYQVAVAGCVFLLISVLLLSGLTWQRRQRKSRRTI

B1: Fc-IL-2v heterodimer 82.46 (hIL-2v_Δ1-5_R38A_C125S) (Fc fusion)
chain 1: ESKYGPPCPPCPAPEAAGGPSVFLFPPKPKDTLMISRTPEVTCVVVDVSQEDPEVQFNWYVDGVEVHNAKTKPREEQFNSTYRVVSVLTVLHQDWLNGKEYKCKVSNKGLPSSIEKTISKAKGQPREPQVYTLPPSQEEMTKNQVSLWCLVKGFYPSDIAVEWESNGQPENNYKTTPPVLDSDGSFFLYSRLTVDKSRWQEGNVFSCSVMHEALHNHYTQKSLSLSLGGGGGSGGGGSGGGGSGGGGSSTKKTQLQLEHLLLDLQMILNGINNYKNPKLTAMLTFKFYMPKKATELKHLQCLEEELKPLEEVLNLAQSKNFHLRPRDLISNINVIVLELKGSETTFMCEYADETATIVEFLNRWITFSQSIISTLT
chain 2: ESKYGPPCPPCPAPEAAGGPSVFLFPPKPKDTLMISRTPEVTCVVVDVSQEDPEVQFNWYVDGVEVHNAKTKPREEQFNSTYRVVSVLTVLHQDWLNGKEYKCKVSNKGLPSSIEKTISKAKGQPREPQVYTLPPSQEEMTKNQVSLSCAVKGFYPSDIAVEWESNGQPENNYKTTPPVLDSDGSFFLVSRLTVDKSRWQEGNVFSCSVMHEALHNRFTQKSLSLSLGK
notes: hIgG4 knob-in-hole Fc heterodimer, one IL-2v on the knob chain
B2: Fc-IL-2v heterodimer 85.46 (hIL-2v_Δ1-5_F42G_C125S) (Fc fusion)
chain 1: B1 chain 1 with A281R, F285G
chain 2: B1 chain 2
notes: as for B1
B3: Fc-IL-2v heterodimer 84.46 (hIL-2v_Δ1-5_T41A_C125S) (Fc fusion)
chain 1: B1 chain 1 with A281R, T284A
chain 2: B1 chain 2
notes: as for B1
B4: Fc-IL-2v heterodimer 109.46 (hIL-2v_Δ1-5_F42A_Y45G_E61A_C125S) (Fc fusion)
chain 1: B1 chain 1 with A281R, F285A, Y288G, E304A
chain 2: B1 chain 2
notes: as for B1
B5: Fc-IL-2v heterodimer 97.46 (hIL-2v_Δ1-5_Y45G_E62A_C125S) (Fc fusion)
chain 1: B1 chain 1 with A281R, Y288G, E305A
chain 2: B1 chain 2
notes: as for B1
B6: Fc-IL-2v heterodimer 112.46 (hIL-2v_Δ1-5_R38G_Y45G_E62A_C125S) (Fc fusion)
chain 1: B1 chain 1 with A281G, Y288G, E305A
chain 2: B1 chain 2
notes: as for B1
B7: Fc-IL-2v heterodimer 104.46 (hIL-2v_Δ1-5_R38G_F42A_C125S) (Fc fusion)
chain 1: B1 chain 1 with A281G, F285A
chain 2: B1 chain 2
notes: as for B1
B8: Fc-IL-2v heterodimer 101.46 (hIL-2v_Δ1-5_F42A_Y45G_C125S) (Fc fusion)
chain 1: B1 chain 1 with A281R, F285A, Y288G
chain 2: B1 chain 2
notes: as for B1
B9: Fc-IL-2v heterodimer 116.46 (hIL-2v_Δ1-5_R38G_E61A_E62A_C125S) (Fc fusion)
chain 1: B1 chain 1 with A281G, E304A, E305A
chain 2: B1 chain 2
notes: as for B1
B10: Fc-IL-2v heterodimer 102.46 (hIL-2v_Δ1-5_Y45G_E61A_E62A_C125S) (Fc fusion)
chain 1: B1 chain 1 with A281R, Y288G, E304A, E305A
chain 2: B1 chain 2
notes: as for B1
B11: Fc-IL-2v heterodimer 111.46 (hIL-2v_Δ1-5_R38G_F42A_E61A_C125S) (Fc fusion)
chain 1: B1 chain 1 with A281G, F285A, E304A
chain 2: B1 chain 2
notes: as for B1
B12: Fc-IL-2v heterodimer 100.46 (hIL-2v_Δ1-5_F42A_E61A_C125S) (Fc fusion)
chain 1: B1 chain 1 with A281R, F285A, E304A
chain 2: B1 chain 2
notes: as for B1
B13: Fc-IL-2v heterodimer 103.46 (hIL-2v_Δ1-5_E61A_E62A_C125S) (Fc fusion)
chain 1: B1 chain 1 with A281R, E304A, E305A
chain 2: B1 chain 2
notes: as for B1
B14: Fc-IL-2v heterodimer 115.46 (hIL-2v_Δ1-5_F42A_E61A_E62A_C125S) (Fc fusion)
chain 1: B1 chain 1 with A281R, F285A, E304A, E305A
chain 2: B1 chain 2
notes: as for B1
B15: Fc-IL-2v heterodimer 106.46 (hIL-2v_Δ1-5_R38G_F42A_Y45G_C125S) (Fc fusion)
chain 1: B1 chain 1 with A281G, F285A, Y288G
chain 2: B1 chain 2
notes: as for B1
B16: Fc-IL-2v heterodimer 110.46 (hIL-2v_Δ1-5_R38G_Y45G_E61A_C125S) (Fc fusion)
chain 1: B1 chain 1 with A281G, Y288G, E304A
chain 2: B1 chain 2
notes: as for B1

Target: T1, IL-2Rβ (recombinant IL-2 receptor β, …)
Assay: SPR (Biacore), C1 or CM5 chip, biotinylated receptor on neutravidin
Source text: (§1) Data for binding of Fc-IL-2 variant fusion proteins to IL-2Rα, IL-2Rβ and IL-2Rβγ heterodimer were collected on a Biacore platform using either C1 or CM5 chips. Neutravidin was immobilized using standard amine coupling methods and used to capture biotinylated receptors. Commercially sourced IL-2Rα (R&D Systems Cat #: 223-2A/CF) and IL-2Rβ receptors (R&D Systems Cat #:224-2B-025/CF) were biotinylated using sulfo-NHS-LC-LC-Biotin, desalted, and then captured on the neutravidin surfaces. […] Distinct purification tags were appended to the C-terminus of each chain. A FLAG epitope tag ([…]; SEQ ID NO: 257) was added at the C-terminus of IL-2Rβ subunit, followed by C-terminal Hiss tag ([…]; SEQ ID NO: 258). An AviTag™ ([…]; SEQ ID NO: 259) motif on the IL-2Rγ subunit allowed for site-specific biotinylation of the heterodimer.
(§2) Fc IL 2 fusion protein variants, Fc protein, and Proleukin were injected at various concentrations over these surfaces. Kinetic data obtained from these injections was used to extract kₒₙ and koff to calculate KD (KD=koff/kₒₙ). Experiments were run at 25° C. in HBS-EP+ running buffer (10 mM HEPES, 150 mM NaCl, 3 mM EDTA, 0.05% Tween20, pH 7.4 with 0.1 mg/ml BSA). Data shown in Table 5 for Fc IL-2 fusion protein variants binding to the indicated IL-2R surfaces were derived from the global fitting of data obtained from 2-5 independent surfaces.

Row | Kd [nM] | Binder
1 | 8200 | B1
2 | 7500 | B2
3 | 7000 | B3

Target: T2, IL-2Rα (recombinant IL-2 receptor α, …)
Assay: as above
Source text: as §1, §2

Row | Kd [nM] | Binder
4 | 108 | B1
5 | 4900 | B2
6 | 119 | B3

Target: T3, trimeric murine IL-2 receptor (IL-2Rα, …)
Assay: cell-based or functional assay

Row | STAT5 activation of CTLL-2 cells, EC50 [nM] | Binder
7 | 0.01 | B1
8 | 5.5 | B2
9 | 0.03 | B3

Target: T3, trimeric murine IL-2 receptor (IL-2Rα, …)
Assay: cell-based or functional assay
Remark: another data set of the same source

Row | STAT5 activation of CTLL-2 cells, EC50 [nM] | Binder
10 | 36.2 | B4
11 | 3.4 | B5
12 | 13.1 | B6
13 | 1.4 | B7
14 | 7.7 | B8
15 | 16.3 | B9
16 | 6.1 | B10
17 | 11 | B11
18 | 1.6 | B12
19 | 2.7 | B13
20 | 67.1 | B14
21 | 19.6 | B15
22 | 1.5 | B16

Target: T4, human IL-2Rα on Treg cells (CD3+, CD4+, …)
Assay: cell-based or functional assay

Row | Treg EC50, STAT5 activation (PBMC STAT5 assay) [nM] | Binder
23 | < 0.001 | B1
24 | 0.06 | B2
25 | < 0.001 | B3

Target: T5, IL-2Rβγ heterodimer, custom biotinylated Fc fusion protein (human IL-2Rβ 27-240-Fc-FLAG / human IL-2Rγ … (human, site-specific biotinylation at the AviTag))
T5 construct: Extracellular regions fused to IgG1 knob-in-hole Fc subunits with tags; also called IL-2 receptor βγ heterodimer; Fc-IL-2Rβγ
T5 sequence (chain, as listed by the source limits assumed): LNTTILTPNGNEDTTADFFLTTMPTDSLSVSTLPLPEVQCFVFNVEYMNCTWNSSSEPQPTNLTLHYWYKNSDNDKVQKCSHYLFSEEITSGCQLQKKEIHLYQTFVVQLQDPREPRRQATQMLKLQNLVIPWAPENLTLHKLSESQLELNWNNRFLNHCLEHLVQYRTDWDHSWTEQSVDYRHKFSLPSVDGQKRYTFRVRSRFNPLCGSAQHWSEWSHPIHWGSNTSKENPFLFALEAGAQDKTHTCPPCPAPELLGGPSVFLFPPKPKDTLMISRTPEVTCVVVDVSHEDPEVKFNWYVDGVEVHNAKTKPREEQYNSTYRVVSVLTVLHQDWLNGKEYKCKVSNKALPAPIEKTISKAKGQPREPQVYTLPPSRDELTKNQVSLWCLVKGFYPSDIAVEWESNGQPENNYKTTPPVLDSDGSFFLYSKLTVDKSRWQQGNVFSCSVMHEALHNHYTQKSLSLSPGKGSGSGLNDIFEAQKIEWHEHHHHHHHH
Assay: SPR (Biacore), CM4 chip, biotinylated receptor on neutravidin
Description: Fc-IL-2 variant binding data was collected on a Biacore platform using a CM4 chip. Neutravidin was immobilized using standard amine coupling methods and used to capture biotinylated receptors. The source, preparation and immobilization of biotinylated IL-2Rα and IL-2Rβγ heterodimer was as described in Example 4. Proleukin was used as a comparator. Fc-IL-2 variants and Proleukin were injected at various concentrations over these surfaces. Kinetic data obtained from these injections was used to extract kₒₙ and koff to calculate KD (KD=Koff/kₒₙ).

Row | Kd [nM] | Binder
26 | 0.056 | B4
27 | 0.065 | B5
28 | 0.066 | B6
29 | 0.061 | B7
30 | 0.054 | B8
31 | 0.115 | B9
32 | 0.073 | B10
33 | 0.069 | B11
34 | 0.061 | B12
35 | 0.096 | B13
36 | 0.093 | B14
37 | 0.06 | B15
38 | 0.059 | B16
